Assay results published in publication PMC8431773, “Novel Cold-Adapted Recombinant Laccase KbLcc1 from Kabatiella bupleuri G3 IBMiP as a Green Catalyst in Biotransformation” (International Journal of Molecular Sciences, 2021).

Experiments:
Experiment in all cases: purified protein
purified protein [1] = substrate: COc1cc(C=NN=Cc2cc(OC)c(O)c(OC)c2)cc(OC)c1O; assay type: biochemical, Aureobasidium bupleuri; settings: pH 7.0, 30 °C, 5.5-40.0 µM substrate
purified protein [2] = substrate: CCn1c(=NN=c2sc3cc(S(=O)(=O)O)ccc3n2CC)sc2cc(S(=O)(=O)O)ccc21; assay type: biochemical, Aureobasidium bupleuri; settings: pH 3.5, 30 °C, 0.2-4.0 mM substrate
purified protein [3] = substrate: COc1cc(/C=C/C(=O)O)cc(OC)c1O; assay type: biochemical, Aureobasidium bupleuri; settings: pH 6.5 (abstract prints optimum pH 6.0), 30 °C, 3.0-150 µM substrate
purified protein [4] = substrate: COc1ccccc1O; settings: pH 5.5, 30 °C, 2.5-20.0 mM substrate

B1: KbLcc1 (Aureobasidium bupleuri) (protein)
chain: MHLQKLSGLCLLAFASVSWADAVPGDRYLWGADRMGKMVRRATTTSKASSTTAKASTSSVKTSSVSSASSKSSSNIVASVSSSPPASSASSASSTSSLVADAACTHGPNSRACWGNGYSIKTDFDLKHPTTGNTVTYNLEITNTTCNPDGNGDMPCYLINNQFPGPTIVADWGDKVIINVKNSLQNNGTSLHWHGVRQLSSVGSDGVGGITECPIAPGQSRTYSFLATQFGTSWYHSHYSSQYGMGVVGQVVINGPSSSNYDIDLGTFPITDLYYGLANNVNEMTLHNLQNNLPPPDGSNILVNGKGKSAKGGSYSQMSLTKGKKHRLRLINTSVDNAVRVKLDGHSFTVMSADFIPIKPLTNQGWILLAVGQRYDVVFTANQTPGNYFFRAEVATDCFSGNTGKGRALFTYSEVTAAEPTDSNEVAPTNGCTELNTVPYWTQAVDQSQYAAQVKTLKTGVAPGLTTNGQNFALWNLDTRAMMVRWDRPTIQYVFEGNTSYPDPYAVIEIPTEGTWTYWLIQMGPQNPPLPHPIHLHGHDFFVLGSGAGTFDATTAVLNFANPPRRDTSILPGLGWLLISFPANNPGIWLMHCHIAWHISEGLGVQFIEAKNSIAMPDKTTFNAECDSWRTYSKNMAWPQIDSGL
notes: full ORF of 649 residues (1938 bp, intron removed) cloned from its own ATG behind alpha-factor secretion signal (pPINKalpha-HF); tag not given; secreted from Pichia pastoris (PichiaPink strain 1)
Km (purified protein [1]): 21 µM | Vmax (purified protein [1]): 33 µmol/min/mg | kcat (purified protein [1]): 38.3 s⁻¹ | kcat/Km (purified protein [1]): 1.81e+06 M⁻¹ s⁻¹ | Km (purified protein [2]): 580 µM | Vmax (purified protein [2]): 34.2 µmol/min/mg | kcat (purified protein [2]): 39.6 s⁻¹ | kcat/Km (purified protein [2]): 68400 M⁻¹ s⁻¹ | Km (purified protein [3]): 15 µM | Vmax (purified protein [3]): 1.39 µmol/min/mg | kcat (purified protein [3]): 1.61 s⁻¹ | kcat/Km (purified protein [3]): 109000 M⁻¹ s⁻¹ | Km (purified protein [4]): 13280 µM | Vmax (purified protein [4]): 4.7 µmol/min/mg | kcat (purified protein [4]): 5.45 s⁻¹ | kcat/Km (purified protein [4]): 410 M⁻¹ s⁻¹
